# Assay: soluble fraction after stress (log2 fold change); higher = more stays soluble; pooled small domains, quantitative proteomics
# Settings: stress: 50 degC
# Procedure, shortened: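 Custom libraries of small protein domains were pooled and measured in a high-throughput format, with quantitative proteomics as the read-out. Each library was stressed at 50°C. The value is the log2 fold change in the amount of each protein that stays soluble after stress, used as a measure of aggregation propensity; higher values mean more of the protein stays soluble.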
row,Sequence,soluble fraction (log2)
1,HMSSDEAEYKLLLGQEGVAKSPLRPSGVVDFSGRRLDVQTLGDFIESGETVVVKQVNGHRVLVERK,0.158
2,HMSGRPPTYTAEERSAVIAAALSRPADLGLPFASWTLDRLVAYLGEKGIGMKRSRMSEVLLAEGLKW,-1.25
3,HMVDETDVPTFTDMTLEEAQNEAKQRNLKLEITESPSDKEKDTILEQDPEPGKTVASGSTVKLTVSNGEE,-0.14
4,HMGVTVDEVHRNFESGMNVVHKKFGAGVVDSFDEGKIRINFDGVIKVFIADVLINSGMLESVSYTH,-0.212
5,HMEALPSNLRRLRLEAQLTLDRLGALSGVSRAMISKIERGASVPTATMLGKLAAALQVSLSQLL,-0.97
6,HMKTAWDELNEVIEAYRGQESALIEVLHKAQEIMGYLPRDVQEAIAEGLHVPLNKVYGVVSFYHHFSV,0.178
7,HMDGTVRGKTTFQELLDWGVPQERIEAVLGGPIPAPGVVIKDYVTAQGKEFSAVRDALQAEVDAVLK,0.232
8,HMEARYQLREVSLDGLRSGMILNADVLSTDGVLMARKGLEVSGLLRSRLEAFAKMERIEPTFKVLVPIAPP,-0.389
9,HMTPTVEAAKEEVLRVLASAAPRGLTRTELEAEVSFRRTKLRDTLVELERIGRIDSVGRRGNATTYRLIG,-0.615
10,HMFNISEKLKKYRNALGLTQTEVAEKIEITKPTYASYEKGKDISIGTLKKLADLFEVSFESFFSE,-0.168
11,HMEEVYVPDIRDKSISDAKKILSQMGLKYRIEGEGYDDSTVIKDQTPKPGALLAKDSVVIAYINE,0.126
12,HMAIKTGAVTGHGVKVRKGPSTNEKAIHDVLYGSRLQILEEKNGFLKAKFEDGTTGWISKQFVTTTDKNLL,0.223
13,HMDPGPVLISAQVLDDLEAIRRDGSSNMLDWPAVARLAEVMGMDRTAAWVRTHHREYSAGIFRGFASD,-1.68
14,HMTMVVIMNADATQADIEGVISAIEEKGLEAKVMEGAHQKIVGVIGDKTKLAATPLDAMHGVETTVAIS,-0.0878
15,HMKIRIIKTASNAKAVQIVSYKNNKRIVLQHIGSAHTDETLNDLKILAEEWIKDYNHQLSIF,-2.49
16,HMGESEKTLELVSQKDALVDEAFFFVRFQALLESNKTKGAQDLLDQSNHLSAAKLLQANAYLDIV,0.119
17,HMGSLGRAIRSRREKMKVGLEELAAKTGLSESHISDIEEGRGFAPVGDILKIARALTIDPGELLK,0.361
18,HMNRGITVIVNNEEIKMKEKAQYVVVDIFDYIDFDLTVPKGSINITLNGENTPYTASIKDGDVIEVFW,-0.266
19,HMGIVAGGTQSIATLRAIDTTDAQLYPDKILINVEDAGLYRLDRQSTATDDGNQVIKPTVGVGRWLKMTS,-0.11
20,HMDGIDALEPLMRRVFEALPQRRSMTIERAAVAAGLDEESVKIALVRLQLEGYVANDERGWHRSKSPH,-0.911
21,HMKPFVVVPIDQVRVGMFIQLDLGWMQHPFPVGSFRVASEAQIDTLRSLDLESVRYLPAKSDPAFQQP,-2.1
22,HMLTKSVLGNQIKVLRLEKGLSQEEFGAPVDLSRSAVSQIESGQMYPSLESIGKIVKYYSTSWDNLVG,-0.821
23,HMYNKKAYVNTNSDFLNVRSEASTESSVVDKLARGTEVNIVGNIQNGFYPIVLNEKNAWVSSDWISFEKPT,0.227
24,HMSKQVDVVIYILENTKAADNTYIGTYRKTADGAGVSLDTATKVMRKLQENNFIKKVQNGVYQISPLIMM,-0.889
25,HMKITIDSVERDETFRLIWGTGWKPKNKIQELAAIQAKKNGLGRMNEVAGLAAWRGIWQQVAEQVAQEVL,-1.04

row,Sequence,soluble fraction (log2)
1,HMKYYIYQGLGDSGELTKIAEVTDVKTYTATGLEANTKYRFAVSAYNGLRESSKSNIITVTT,0.0324
2,HMENTSPMTPEQSKALMAYLTKRHGDSREAYLSELSQFFGRPLSSSRELTKADVSEFLNAIN,0.161
3,HMNKVAQFYRELVSTLSERLRNGERDIDALVEQARVRISQSGELTQSEIENVIRAVRRDLEEFALSYEE,0.0926
4,HMPLNRFLNLPHEDKERVLLIAKKQFSTHGYDAMSLNLLLKELDISKGQFYYWFEDKADLFFTVL,0.0032
5,HMDSLSGQQGRVLEEINGFLQTGKVLLNGMEWSAVSKQPEDILPVDTEVVVVRVEGAHLVVKKA,0.0592
6,HMPEVTMSYSARNQVVSFSKATQYEIVDEFGTVVLRGVGNQATLRYLSRGDYFVNFGAGTEVLKK,0.000609
7,HMPAVVEFDVKPRGEVLVDGIWYGRIPELREVELRPGRHHLRVQNAGHPSLDLVVTLEPGERMTVTHTFA,-0.102
8,HMAENMNAALRVSSLINQIGTVNAKAKDRIESARKAYDALSEAQKAYVANLTTLETAETSLSKL,0.179
9,HMSSGKTGTITLQPKQTVYGITKQYKISEADLRKLNPQLDSNLKIGDKITLPLDNIQRYSDSSSNVAQT,0.211
10,HMEIDDPWLILGINAGSSIEIAQKAWKDLASQNHPDKLIANGVPKELLGMANEKLAIINGAYDKILKAHKI,-0.262
11,HMLSLGIMEADMLKTGKHTISGISKATPEQRQKIDSDIEELKKKYPEKNITSKVENDNLIVESGVTAP,0.278
12,HMSMDAVSLANRLLRFFQKRPGRKFTAADLAFETGMNERTGKSLVTSALEILSRTNQIEADGDGFRLKM,0.138
13,HMRSGEDESFSAGLLEYPHYTRPAEFEGHRIPDILTSGDHAKVDAWRQEMSEHITRERRPDLWEMYKKK,0.0901
14,HMHTGEVVNGKVIDVKEDQIILNVGFKSDGIITRSEYSNDNSLDLRTVVNVGDDMEAKVLKINDGEGQVLL,-0.185
15,HMTDLALHIGKTLRELRQRRGWSLDKTAQATGVSKAMLGQIERGESSPTVVTLWRISSGLQASFSEFLPP,-1.61
16,HMSDSISLTLNGDLRRFRAHATIADLVRDIGLDPVKVAVERNLEIVSRSTLEDVVLADGDRLEIVHFV,-1.33
17,HMESTLNYSQFLSLVNEDRVAEVVIQGKELYVTDVNRSRFKVYAPPDPELIGLLRQKRVIISAKP,-0.0196
18,HMLARFSGIALNTWTQADVERTFGPPMLVERVARFDGDIWTYRFMDDYEPRMAHIHIDRAGTVRQLVF,-2.77
19,HMGIVVDGTMTLEGVAERYGMSVGELARVIGVPPEYSNERLGRLRKSYEFEMDDIRIYIIQKQ,-1.31
20,HMRMYDVNEYSDEELHRILDLSSPTDSELEARILQMIQKYKYTNGGDNEKMAVFFENIYHHFFD,-1.5
21,HMALKPKITIEELIRILNESKDLSDSETAKILNKDYTTAKYGKEFTSINVQGARYALDIATNTS,-0.135
22,HMEGRTVMATTAVNVRSGPGTSYKILGVLYPGHTAQQIGNTRYGWAQVTWKGHTAYIAARYLRDS,-2.41
23,HMSLSASELDQLRMMTKVSHMYHTRGMVQIDIARSLGLSQARVSRLLSAAEDANIVRTVVVA,-0.306
24,HMIKNKDRIQYTLAHRKAFRKIEKELLGYNTFRSLFHDLDKVFLYPFFDYKKVHNFHRNHAHH,0.199
25,HMGKSKAAQSSLVRSIMHQISDKNRGPMPLSEIIDRASIQSIDEAIVRSLVSRMKEQGEIYEPSLGTYEF,-0.209

row,Sequence,soluble fraction (log2)
1,HMILEEIIGKNIARYREAAGLTQATLAEKIGISTAFVSRVERGQKKMKVETLYATAKVLNVSVDALLS,-2.1
2,HMSFDNIKVGYISETAGYVKGISLADANEYAKLNPDTEFIFIDGDEKVRFLTINEVNGLTPKNLLRSDP,-0.23
3,HMNREIVVYITGAVDNPGLYRLPLDSRLDDVLKLAVLSTNADREVLNPAQKLKDGQKIVVPYIVE,-0.111
4,HMDPPQEVWDLTRSYLDSMNRPVHGHKSPQETYLRQVKSHRLPATALWDYFMAQRFHAVHATSESAA,-0.0648
5,HMTDDFAGRFNELLIHNQETAVTAATRLEVSPAVITKWRQGKSIPSGEYIKRIVETYHVSADYLLGVIDTP,-0.445
6,HMSYEDLIQAVSGHFGIEIRALLSEDRKKENMIPRQVAMYLLKNKLHYTYERIGNIFSGRNHTAVMYSV,-0.193
7,HMYEHLKALRESLGMTQAEFGESVGVAKSTYNNYEIGARDPKSDFWIAVAQRYGVTIDYLMGFSDDPKKT,-1.65
8,HMENDPYEILGIARSASDDEIKAKYRALTRENHPDILMAKGVPQEFIDLANEKMAVINAAYDKIEKER,0.292
9,HMAAYRLIPLGNSNKDFETYQEAIQYMRDKLDESSKAFEEGKQNWVYSGRVYGVPWSDGRTTFTVDLVPKV,0.164
10,HMLPLHFIEIVSLKKIDTLTKRKELINYAFSKNEKTYIYKLAFKKKSELDNLYKEINLFNEIINIDIRHS,-0.615
11,HMNVRAYKVSKESELTVEEKLEAVRGYGVADLLYVIREFEENPGKYEPEVIKLIVQQLTDKGIM,0.199
12,HMNYTQAQIDRANAVSLEDFLRTQGETLIKSGREYRWKEHDSLTVRGNKWFRHSQSKGGYPIDFVMEFTA,0.0368
13,HMINDKLQHLFSLFPAMDKELKRKGITRQILWVEYKKQYPLGFGRSQFNSYFAAWKAQVSPS,-1.52
14,HMDKVEQLMQNPVIQEKMSEGDRELLRNASLVVLGRLEDDGSIIQRFVELFGEEAYERLKSELM,0.259
15,HMNESPVLAVLTPTERKVASLVAEGLTNQAIAARMILAEGTVKNHVSTLLHKLQAPDRTALALTLYKAFQ,-0.469
16,HMTVGEAHLEEVYLKVLKQVEEQGTALIRTTDVETGRPAAGIRRRYMRGTLPDEWVAKFEALPGWTWAPG,-0.879
17,HMPVEFVKISIKPGHPWENQFVRDIVSLPDLLMVLILRGEERIIPNGNTKILVGDKIVLSALSPG,-0.779
18,HMTSNSLNLKDEISAFLTKNAGISYSAERIAHALNMDNADQFTPIIQTLAQLEREKKVRVTDKGEFEAVIK,0.0897
19,HMERTQSIEAAREQLGEVTKDNVFETETLGALAILKENEPGEYAKIKADLKGKINMNDLERAVKKAAADQR,≥ 0.62
20,HMEQSLNTYSIRTVKESLFLAETKNLNKIEKLVEGIEGRLTLSEALVLFSDKLNAMSVLSHVNANT,-0.148
21,HMQDFEEILKNAKIEDFKHTQTGEDLKVLKIEDKIEDFKGFNAYLVKNQIAYYSKFARGFVVKNIEKLQGV,0.0429
22,HMREEQELFRKLLEVNGIGPKVAAGMLAGGRPEDVVSAIRREDVAWLTKLPGIGRKTAQRIVLDLKDKLD,-0.0754
23,HMASVDDILDRFKQAAKVTTDADLAKVLGLSRQSIAAARLRAKIPASWFPKMSSLFNISTEWLYRG,-0.628
24,HMATEPLQPRVEVLGSTLATTNGARIVGVYDMSGREVSATQLSKGVYIVKVTNGSVTATQKVFI,0.112
25,HMRTDQYHYLAWKQVADELGIPFDEQVNERLRGVSRMASFDIILERYDGTMSDEEKIHWTDKKNEIYKSM,-0.948
